Assay results: PMC4801511

Substrate: Cc1cc(=O)oc2c(F)c(OP(=O)(O)O)c(F)cc12
Experiment: DiFMUP fluorescence phosphatase assay, Michaelis-Menten fit
Format: biochemical, Homo sapiens
Details: 20 mM tris-acetate pH 6.0, 150 mM NaCl, BSA 0.1 mg/ml

Protein	Km [µM]	kcat/Km [M⁻¹ s⁻¹]
RPAP2_32–345 (Homo sapiens) (protein) LKQEDASKRKAELEAAVRKKIEFERKALHIVEQLLEENITEEFLMECGRFITPAHYSDVVDERSIVKLCGYPLCQKKLGIVPKQKYKISTKTNKVYDITERKSFCSNFCYQASKFFEAQIPKTPVWVREEERHPDFQLLKEEQSGHSGEEVQLCSKAIKTSDIDNPSHFEKQYESSSSSTHSDSSSDNEQDFVSSILPGNRPNSTNIRPQLHQKSIMKKKAGHKANSKHKDKEQTVVDVTEQLGDCKLDSQEKDATCELPLQKVNTQSSSNSTLPERLKASENSESEYSRSEITLVGISKKSAEHFKRKFAKSN	34.20 ± 0.84	333000
RPAP2_32–274 (Homo sapiens) (protein) LKQEDASKRKAELEAAVRKKIEFERKALHIVEQLLEENITEEFLMECGRFITPAHYSDVVDERSIVKLCGYPLCQKKLGIVPKQKYKISTKTNKVYDITERKSFCSNFCYQASKFFEAQIPKTPVWVREEERHPDFQLLKEEQSGHSGEEVQLCSKAIKTSDIDNPSHFEKQYESSSSSTHSDSSSDNEQDFVSSILPGNRPNSTNIRPQLHQKSIMKKKAGHKANSKHKDKEQTVVDVTEQL	30.95 ± 1.75	833000
